Results on 46 molecules are retold here after patent US20240132624A1 (Ablynx, published 2024).

Where a chain is given by its changes, count along the chain named.

Sequences and labels used below:
B1: T0263018B11 A33H (VHH, name in Kabat numbering)
VHH: EVQLVESGGGVVQPGGSLRLSCAASGFTFSSYHMYWVRQAPGKGLEWVSAISSGGGSTDYADSVKGRFTISRDNSKNTLYLQMNSLRPEDTALYYCAADTLYTSLTWYSYWGQGTLVTVSS
notes: FLAG3-His6 tagged
B2: T0263018B11 S100A (VHH, name in Kabat numbering)
VHH: B1 VHH with H33A, S104A
notes: FLAG3-His6 tagged
B3: T0263018B11 T57G (VHH, name in Kabat numbering)
VHH: B1 VHH with H33A, T58G
notes: FLAG3-His6 tagged
B4: T0263018B11 T57D (VHH, name in Kabat numbering)
VHH: B1 VHH with H33A, T58D
notes: FLAG3-His6 tagged
B5: T0263018B11 T57R (VHH, name in Kabat numbering)
VHH: B1 VHH with H33A, T58R
notes: FLAG3-His6 tagged
B6: T0263018B11 S100W (VHH, name in Kabat numbering)
VHH: B1 VHH with H33A, S104W
notes: FLAG3-His6 tagged
B7: T0263018B11 S30M (VHH, name in Kabat numbering)
VHH: B1 VHH with S30M, H33A
notes: FLAG3-His6 tagged
B8: T0263018B11 F29Q (VHH, name in Kabat numbering)
VHH: B1 VHH with F29Q, H33A
notes: FLAG3-His6 tagged
B9: T0263018B11 T57E (VHH, name in Kabat numbering)
VHH: B1 VHH with H33A, T58E
notes: FLAG3-His6 tagged
B10: T0263018B11 T96G (VHH, name in Kabat numbering)
VHH: B1 VHH with H33A, T100G
notes: FLAG3-His6 tagged
B11: T0263018B11 A93T (VHH, name in Kabat numbering)
VHH: B1 VHH with H33A, A97T
notes: FLAG3-His6 tagged
B12: T0263018B11 D58A (VHH, name in Kabat numbering)
VHH: B1 VHH with H33A, D59A
notes: FLAG3-His6 tagged
B13: T0263018B11 T28G (VHH, name in Kabat numbering)
VHH: B1 VHH with T28G, H33A
notes: FLAG3-His6 tagged
B14: T0263018B11 S56E (VHH, name in Kabat numbering)
VHH: B1 VHH with H33A, S57E
notes: FLAG3-His6 tagged
B15: T0263018B11 T57M (VHH, name in Kabat numbering)
VHH: B1 VHH with H33A, T58M
notes: FLAG3-His6 tagged
B16: T0263018B11 F29I (VHH, name in Kabat numbering)
VHH: B1 VHH with F29I, H33A
notes: FLAG3-His6 tagged
B17: T0263018B11 F27M (VHH, name in Kabat numbering)
VHH: B1 VHH with F27M, H33A
notes: FLAG3-His6 tagged
B18: T0263018B11 G26A (VHH, name in Kabat numbering)
VHH: B1 VHH with G26A, H33A
notes: FLAG3-His6 tagged
B19: T0263018B11 S31G (VHH, name in Kabat numbering)
VHH: B1 VHH with S31G, H33A
notes: FLAG3-His6 tagged
B20: T0263018B11 D58T (VHH, name in Kabat numbering)
VHH: B1 VHH with H33A, D59T
notes: FLAG3-His6 tagged
B21: T0263018B11 A33N (VHH, name in Kabat numbering)
VHH: B1 VHH with H33N
notes: FLAG3-His6 tagged
B22: T0263018B11 T28M (VHH, name in Kabat numbering)
VHH: B1 VHH with T28M, H33A
notes: FLAG3-His6 tagged
B23: T0263018B11 G54T (VHH, name in Kabat numbering)
VHH: B1 VHH with H33A, G55T
notes: FLAG3-His6 tagged
B24: T0263018B11 T96W (VHH, name in Kabat numbering)
VHH: B1 VHH with H33A, T100W
notes: FLAG3-His6 tagged
B25: T0263018B11 G26K (VHH, name in Kabat numbering)
VHH: B1 VHH with G26K, H33A
notes: FLAG3-His6 tagged
B26: T0263018B11 Y98W (VHH, name in Kabat numbering)
VHH: B1 VHH with H33A, Y102W
notes: FLAG3-His6 tagged
B27: T0263018B11 Y32A (VHH, name in Kabat numbering)
VHH: B1 VHH with Y32A, H33A
notes: FLAG3-His6 tagged
B28: T0263018B11 W100cE (VHH, name in Kabat numbering)
VHH: B1 VHH with H33A, W107E
notes: FLAG3-His6 tagged
B29: T0263018B11 W100cM (VHH, name in Kabat numbering)
VHH: B1 VHH with H33A, W107M
notes: FLAG3-His6 tagged
B30: T0263018B11 T57Q (VHH, name in Kabat numbering)
VHH: B1 VHH with H33A, T58Q
notes: FLAG3-His6 tagged
B31: T0263018B11 T57H (VHH, name in Kabat numbering)
VHH: B1 VHH with H33A, T58H
notes: FLAG3-His6 tagged
B32: T0263018B11 S100L (VHH, name in Kabat numbering)
VHH: B1 VHH with H33A, S104L
notes: FLAG3-His6 tagged
B33: T0263018B11 G54D (VHH, name in Kabat numbering)
VHH: B1 VHH with H33A, G55D
notes: FLAG3-His6 tagged
B34: T0263018B11 S31V (VHH, name in Kabat numbering)
VHH: B1 VHH with S31V, H33A
notes: FLAG3-His6 tagged
B35: T0263018B11 G54V (VHH, name in Kabat numbering)
VHH: B1 VHH with H33A, G55V
notes: FLAG3-His6 tagged
B36: T0263018B11 T28S (VHH, name in Kabat numbering)
VHH: B1 VHH with T28S, H33A
notes: FLAG3-His6 tagged
B37: T0263018B11 F29Y (VHH, name in Kabat numbering)
VHH: B1 VHH with F29Y, H33A
notes: FLAG3-His6 tagged
B38: T0263018B11 T57K (VHH, name in Kabat numbering)
VHH: B1 VHH with H33A, T58K
notes: FLAG3-His6 tagged
B39: T0263018B11 D58S (VHH, name in Kabat numbering)
VHH: B1 VHH with H33A, D59S
notes: FLAG3-His6 tagged
B40: T0263018B11 Y98L (VHH, name in Kabat numbering)
VHH: B1 VHH with H33A, Y102L
notes: FLAG3-His6 tagged
B41: T0263018B11 S56G (VHH, name in Kabat numbering)
VHH: B1 VHH with H33A, S57G
notes: FLAG3-His6 tagged
B42: T0263018B11 S30P (VHH, name in Kabat numbering)
VHH: B1 VHH with S30P, H33A
notes: FLAG3-His6 tagged
B43: T0263018B11 T57A (VHH, name in Kabat numbering)
VHH: B1 VHH with H33A, T58A
notes: FLAG3-His6 tagged
B44: T0263018B11 S31A (VHH, name in Kabat numbering)
VHH: B1 VHH with S31A, H33A
notes: FLAG3-His6 tagged
B45: T0263018B11 L100aV (VHH, name in Kabat numbering)
VHH: B1 VHH with H33A, L105V
notes: FLAG3-His6 tagged
B46: T0263018B11 F29P (VHH, name in Kabat numbering)
VHH: B1 VHH with F29P, H33A
notes: FLAG3-His6 tagged

For the first assay, the target named is T1, cyno FcRn/b2M (cyno, UniProt Q8SPV9 24-297; Q8SPW0 21-119, biotinylated).
T1 construct: bought recombinant biotinylated protein (Immunitrack ITF05 or ACRO FCM-C82W5); also called cFcRn; cFcRn/cb2M
T1 sequence (Q8SPV9 24-297 limits assumed, chain 1 of 2): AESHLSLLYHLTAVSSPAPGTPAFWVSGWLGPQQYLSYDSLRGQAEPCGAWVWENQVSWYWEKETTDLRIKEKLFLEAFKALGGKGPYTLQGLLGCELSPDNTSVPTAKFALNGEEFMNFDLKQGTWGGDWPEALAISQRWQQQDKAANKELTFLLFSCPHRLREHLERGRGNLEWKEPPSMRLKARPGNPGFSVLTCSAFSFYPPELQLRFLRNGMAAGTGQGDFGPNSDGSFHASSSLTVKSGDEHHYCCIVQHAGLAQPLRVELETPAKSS
T1 sequence (Q8SPW0 21-119 limits assumed, chain 2 of 2): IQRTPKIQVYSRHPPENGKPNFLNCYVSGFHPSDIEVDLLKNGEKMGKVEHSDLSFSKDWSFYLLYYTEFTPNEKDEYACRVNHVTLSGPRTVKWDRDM
Kind of assay: SPR pH 7.4.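 Also: surface plasmon resonance kinetics, periplasmic extracts diluted 1:10 flowed over immobilized target at 25 °C, 120 s association then 600–3600 s dissociation, buffer with 150 mM NaCl.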
Method: (§1) All kinetic measurements have been performed on ProteOn XPR36 (BioRad Laboratories, Inc.), MASS-2 (Sierra sensors, Gmbh) or SPR-32 (Bruker Corporation). […] The phytip purified periplasmic extracts were diluted 1:10 in running buffer (CPA+150 mM NaCl+0.005% Tw20 at pH 5.5, pH 6.0 or pH 7.4) and injected over the ligand surfaces (association: 120 s at 45 μL/min; dissociation: 600s-3600 s at 45 μL/min). Experiments were carried out at 25° C.
By koff is commonly meant the first-order rate constant of dissociation. Read a low koff as a long-lived complex. Regarding B1, the koff is 0.037 s⁻¹. The same measure, in the same setting: as for B2, the figure is 0.0099 s⁻¹; as for B3, 0.04 s⁻¹; as for B4, 0.026 s⁻¹. Same read-out and setting: under B5 stands 0.026 s⁻¹; under B6, 0.015 s⁻¹. B7: the koff is 0.022 s⁻¹. Still for that read-out and setting: as for B8, the figure is 0.088 s⁻¹; as for B9, 0.024 s⁻¹; as for B10, 0.21 s⁻¹.

As for B11, the koff came to 0.12 s⁻¹. On the same count and under the same terms, as for B12, the figure is 0.036 s⁻¹; as for B13, 0.028 s⁻¹. Still for that read-out and setting: as for B14, the figure is 0.1 s⁻¹. The same measure, in the same setting: as for B15, the figure is 0.027 s⁻¹.

For the molecule B16, the off-rate (koff) came to 0.083 s⁻¹. Compared with the last molecule, the koff is about 3.1-fold higher.

A further assay addresses T1, cyno FcRn/b2M. Kind of assay: SPR off-rate; pH 7.4 vs pH 6.0.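 Also: surface plasmon resonance with diluted periplasmic extracts flowed over ligand surfaces, 120 s association and 600–3600 s dissociation at 25 °C, running buffer containing 150 mM NaCl.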
Method: as §1
On to B17, for which the “kd ratio pH 7.4/6.0” value came out at 69. On the same count and under the same terms, as for B18, the figure is 116. With B19, the “kd ratio pH 7.4/6.0” value is 58.

Regarding B20, the “kd ratio pH 7.4/6.0” value came to 10.

On to B21, for which the “kd ratio pH 7.4/6.0” value is 49. Still for that read-out and setting: under B22 stands 64. The same measure, in the same setting: under B23 stands 35; under B24, 54. Still for that read-out and setting: under B25 stands 101. Take B26: the “kd ratio pH 7.4/6.0” value stood at 45.

In the case of B27, the “kd ratio pH 7.4/6.0” value was 70. Take B28: the “kd ratio pH 7.4/6.0” value was determined as 71. Still for that read-out and setting: as for B29, the figure is 59; as for B30, 34. Regarding B31, the “kd ratio pH 7.4/6.0” value was determined as 41.

Take B32: the “kd ratio pH 7.4/6.0” value was found to be 62.

Take B33: the “kd ratio pH 7.4/6.0” value is 41. Same read-out and setting: under B34 stands 89; under B35, 31. The same measure, in the same setting: under B36 stands 85.

For the molecule B37, the “kd ratio pH 7.4/6.0” value was found to be 45.

With B38, the “kd ratio pH 7.4/6.0” value was 40. Turning to B39, the “kd ratio pH 7.4/6.0” value is 12. Still for that read-out and setting: under B40 stands 36; under B41, 54. Still for that read-out and setting: under B42 stands 41. Same read-out and setting: under B43 stands 36; under B44, 61; under B45, 39.

The target of another assay is T2, human FcRn/b2M (human, UniProt P61769 21-119, biotinylated).
T2 construct: bought recombinant biotinylated protein (ACRO FCM-H82W4 or Immunitrack ITF01); also called hFcRn; hFcRn/hb2M
T2 sequence (chain, as listed by the source limits assumed, chain 1 of 2): as the sequence (Q8SPV9 24-297 limits assumed, chain 1 of 2) above, with D39N, Q44E, S99G, G189S, N190S, M217L, T269S counted along it
T2 sequence (P61769 21-119 limits assumed, chain 2 of 2): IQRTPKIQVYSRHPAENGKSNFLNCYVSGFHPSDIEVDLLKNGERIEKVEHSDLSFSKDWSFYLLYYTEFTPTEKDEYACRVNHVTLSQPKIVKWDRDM
Kind of assay: SPR pH 6.0.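 Also: surface plasmon resonance kinetics at 25 °C, diluted periplasmic extracts injected over immobilized ligand surfaces, 120 s association then 600–3600 s dissociation, running buffer containing 150 mM NaCl.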
Method: as §1
As to B1, the koff came to 0.00076 s⁻¹. Still for that read-out and setting: as for B2, the figure is 0.00025 s⁻¹. The molecule B3 displayed a koff of 0.0013 s⁻¹. Still for that read-out and setting: as for B4, the figure is 0.00073 s⁻¹; as for B5, 0.00086 s⁻¹; as for B6, 0.00062 s⁻¹. As for B7, the koff stood at 0.00074 s⁻¹.

B8 displayed a koff of 0.0021 s⁻¹. This koff lies about 2.8-fold higher than the previous one. On the same count and under the same terms, under B9 stands 0.00076 s⁻¹; under B10, 0.014 s⁻¹; under B11, 0.0025 s⁻¹.

For the molecule B12, the off-rate constant (koff) is 0.0089 s⁻¹. This koff lies about 3.6-fold higher than the previous one. The same measure, in the same setting: as for B13, the figure is 0.00075 s⁻¹; as for B14, 0.0026 s⁻¹; as for B15, 0.00098 s⁻¹. The same measure, in the same setting: under B46 stands 0.0026 s⁻¹.

In another assay the target is T1, cyno FcRn/b2M. Briefly: SPR pH 6.0.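 Also: surface plasmon resonance kinetics at 25 °C, diluted periplasmic extracts injected over immobilized ligand surfaces, 120 s association then 600–3600 s dissociation, running buffer containing 150 mM NaCl.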
Method: as §1
B1 yielded a koff of 0.00077 s⁻¹. On the same count and under the same terms, as for B2, the figure is 0.00021 s⁻¹; as for B3, 0.0011 s⁻¹.

Regarding B4, the koff is 0.00063 s⁻¹. This koff lies about 1.7-fold lower than the previous one.

As for B5, the off-rate (koff) is 0.00071 s⁻¹. B6 returned a dissociation rate constant (koff) of 0.00029 s⁻¹. Compared with the last molecule, the koff is about 2.4-fold lower. Consider B7, for which the off-rate (koff) was 0.00069 s⁻¹. Still for that read-out and setting: as for B8, the figure is 0.0017 s⁻¹; as for B9, 0.00055 s⁻¹. Take B10: the koff was 0.0084 s⁻¹. This koff is about 15-fold higher than that of the molecule before. Still for that read-out and setting: as for B11, the figure is 0.0019 s⁻¹; as for B12, 0.0026 s⁻¹; as for B13, 0.0002 s⁻¹. On the same count and under the same terms, as for B14, the figure is 0.0019 s⁻¹; as for B15, 0.0007 s⁻¹.

For B46, the koff came out at 0.0019 s⁻¹. Against the preceding molecule, the koff is about 2.7-fold higher.

Take B16: the koff was determined as 0.0015 s⁻¹.
